# Assay: yeast display, Sf9 membrane polyspecificity reagent, FACS + sequencing; frameworks hold sequencing errors
# Outline: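 A synthetic nanobody library was expressed on Saccharomyces cerevisiae BJ5465 by galactose induction for 36–48 hours. The library was stained for 1 hour at 4 °C with 10% biotinylated, detergent-solubilized Sf9 membrane reagent and enriched with streptavidin microbeads before FACS. Low and high (top ~1%) gates were set on anti-HA fluorescence for expression and streptavidin fluorescence for reagent binding, and each polyreactivity label reflects the gate of origin.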
row,Sequence,polyreactivity (PSR sort gate)
1,QVQLVESGGGLVQAGGSLRLSCAASGSIFVYYAMGWYRQAPGKERELVAAISQRGGRTYYADSVKGRFTISRDNAKNTVYLQMNSLKPEDTAVYYCAADSGPASAGYYYWGQGTQVTVSS,high polyreactivity
2,QVQLVESGGGLVQAGGSLRLSCAASGSIFVYYAMGWYRQAPGKERELVAAISSGGRTYYADSVKGRFTISRDNAKNTVSLQMNSLKPEDTAVYYCNAVHYFQYGYYSWGQGTQVTVSS,high polyreactivity
3,QVQLVESGGGLVQAGGSLRLSCAASGSIFVYYAMGWYRQAPGKERELVAAITRRGGSTYYADSVKGRFTISRDNAKNTVYLQMNSLKPEDTAVYYCNSYTSRQYGLEYWGQGTQVSVSS,high polyreactivity
4,QVQLVESGGGLVQAGGSLRLSCAASGSIFVYYAMGWYRQAPGKERELVAAITSGGSTNYADSVKGRFTISRDNAQNTVYLQMNSLKPEDTAVYYCAVVTRAHPEDYWGQGTQVTVSS,high polyreactivity
5,QVQLVESGGGLVQAGGSLRLSCAASGSIFVYYAMGWYRQAPGKERELVAGISTSGGSTYYADSVKGRFTISRDNAKNTVYLQMNSLKPEDTAVYYCAAVDSFGYYKLYEYWGQGTQVTVSS,high polyreactivity
6,QVQLVESGGGLVQAGGSLRLSCAASGSIFVYYAMGWYRQAPGKERELVATITNDGSTYADSVKGRFTISRDNAKNTVYLQMNSLKPEDTAVYYCAAKIPSDRTIYDYWGQGTQVTVSS,low polyreactivity
7,QVQLVESGGGLVQAGGSLRLSCAASGSIFVYYTMGWYRKAPGKERELVASIDSGDRTNYADSVKGRFTISRDNAKNTVYLQMNSLKPEDTAVYYCAARHSRSWRFNSRRRYGYWGQGTQVTVSS,high polyreactivity
8,QVQLVESGGGLVQAGGSLRLSCAASGSIFWDNAMGWYRQAPGKERELVAAITSSGDTTYYADSVKGRFTISRDNAKNTVYVQMNSLKPEDTAVYYCAKVFGPTDYLTGTFKGDYWGQGTQVTVSS,low polyreactivity
9,QVQLVESGGGLVQAGGSLRLSCAASGSIFWGNAMGWYRQAPGKERELVAAIDWSGGSTYYADSVKGRFTISRDNAKNTVYLQMNSLKPEDTAVYYCAASGRYDYDYWGQGTQVTVSS,low polyreactivity
10,QVQLVESGGGLVQAGGSLRLSCAASGSIFWGNAMGWYRQAPGKERELVAAITSGGSTNYADSVKGRFTISRDNAKNTVYLQMNSLKPEDTAVYYCIADVARVPFEFDYWGQGTQVTVSS,low polyreactivity
11,QVQLVESGGGLVQAGGSLRLSCAASGSIFWGNDMGWYRQAPGKERELVAGIRNSGTSTYYADSVKGRFTISRDNAKNTVYVQMNSLKPEDTAVYDCAAADGRQYSRYYWRGHDYWGQGTQVTVSS,low polyreactivity
12,QVQLVESGGGLVQAGGSLRLSCAASGSIFWINAMGWYRQAPGKERELVADIDVSGGSTYYADSVKGRFTISRDNAKNTVYLQMNSLKPEDTAVYYCAADDYWAYLYYKTSEYDYWGQGTQVTVSS,low polyreactivity
13,QVQLVESGGGLVQAGGSLRLSCAASGSIFWIYAMGWYRQAPGKERELVATITRRGGSTYYADSVKGRFTISRDNAKNTGYLQMNSLKPEDSAVYYCATEPGYTYLTSYKYDYWGQGTQVTVSS,low polyreactivity
14,QVQLVESGGGLVQAGGSLRLSCAASGSIFWLYAMGWYRQAPGKERELVARINWSGGNTYYADSVKGRFTISRDNAKNTDYLQMNSLKPEDTAVYYCNARSQYRMNYWGQGTQVTGSS,low polyreactivity
15,QVQLVESGGGLVQAGGSLRLSCAASGSIFWNNAMGWYRQAPGKERELVAGISGGSTNYADSVKGRFTISRDNAKNTVYLQMNSLKPEDTAVYYCATERQWESRFEAYDYWGQGTQVTVSS,low polyreactivity
16,QVQLVESGGGLVQAGGSLRLSCAASGSIFWPYAMGWYRQAPGKERELVAAISSSGTSTYYADSVKGRFTISRDNAKNTVYLQMNSLKPEDTAVYYCAKELFTYPYEYWGQGTQVTVSS,low polyreactivity
17,QVQLVESGGGLVQAGGSLRLSCAASGSIFWQNAMGWYRQAPGKERELVAAISRNGGSTNYADSVKGRFTISRDNAKNTVYLQMNSLKPEDTAVYYCAAVGTVSRTVGYNYWGQGTQVTVSS,high polyreactivity
18,QVQLVESGGGLVQAGGSLRLSCAASGSIFWQNTMGWYRQAPGKERELVATISSGDSTYYADSVKGRFTISRDNAKNTVYLQMNSLKPEDTAVYYCNTTEHKYVSSFEYGYWGQGTQVTVSS,low polyreactivity
19,QVQLVESGGGLVQAGGSLRLSCAASGSIFWQYAMGWYRQAPGKERELVAAINWSGDTTYYADSVKGRFTISRDNAKNTVYLQMNSLKPEDTAVYFCAAVGGVSYGGSPKTHAGEDYWGQGTQVTVSS,low polyreactivity
20,QVQLVESGGGLVQAGGSLRLSCAASGSIFWSNAMGWYRQAPGKELELVAAITTSDGSTYYADSVKGRFTISRDNAKNTVYLQMNSLKPEDNAVYYCAADASTWYTEEYWGQGTQVTVSS,low polyreactivity
21,QVQLVESGGGLVQAGGSLRLSCAASGSIFWSYAMGWYRQAPGKERELVAAINWSGGRTYYADSVKGRFTISRDNAKNTVYLQMNSLKPEDTAVYYCNAPVHTAQGDEYDYWGQGTQVTVSS,high polyreactivity
22,QVQLVESGGGLVQAGGSLRLSCAASGSIFWSYDMGWYRQAPGKERELVATITSGDSTYYADSVKGRFTISRDNAKNTVYLQMNSLKPEDTAVYYCNVDVSVEVAYWGQGTQVTVSS,low polyreactivity

row,Sequence,polyreactivity (PSR sort gate)
1,QVQLVESGGGLVQAGGSLRLSCAASGSIFWVYAMGWYRQAPGKERELVAAISSSGGRTYYADSVKGRFTISRDNAKNTVYLQMNSVKPEVTAVYYCAARWKTGYNYWGQGTQVTVSS,high polyreactivity
2,QVQLVESGGGLVQAGGSLRLSCAASGSIFWWNAMGWYRQAPGKERELVAAINWSTGRTYYADSVKGRFTISRDNAKNTVYLQMNSLKPEDTAVYYCNADSKSSYYWYLWYNYWGQGTQVTVSS,low polyreactivity
3,QVQLVESGGGLVQAGGSLRLSCAASGSIFWWNTMGWYRQAPGKERELVAAITFSGGSTYYADSVKGRFTISRDNAKNTVYLQMNSLKPEDTAVYYCNADGWVSVRGTWSDGGYWGQGTQVTVSS,low polyreactivity
4,QVQLVESGGGLVQAGGSLRLSCAASGSIFWYNAMGWYRQAPGKERELVAAINWSGGSTFYADSVKGRFTISRDNAKNTVFLQMNSLKPEDTAVYYCAADDWYTGYDYWGHGTQVTVSS,high polyreactivity
5,QVQLVESGGGLVQAGGSLRLSCAASGSIFWYNAMGWYRQAPGKERELVARISSSGDSTYYADSVKGRFTISRDNAKNTVYLQINSLKPEDTAVYYCNVDYWSISESSWGYYTSYDYWGQGTQVTVSS,high polyreactivity
6,QVQLVESGGGLVQAGGSLRLSCAASGSIFWYYAMGWYRQAPGKERELVAAISISGSTYYADSVKGRFTISRDNAKNTVYLQMNSLKPEDTAVYYCAARKFFWRSNYDYWGQGTQVNVSS,low polyreactivity
7,QVQLVESGGGLVQAGGSLRLSCAASGSIFWYYDMGWYRQAPGKERELVATISRTGRTYYADSVKGRFTISRDNAKNTVYLQMNSLKPEDTAVYYCAAVPRGWFSYPSGYDYWGQGTQVTVSS,high polyreactivity
8,QVQLVESGGGLVQAGGSLRLSCAASGSIFWYYGMGWYRPAPAKERELVAAISSGGSTNYADSVKGRFAISRDNAKNTVYIQMNSLKPEDTAVYYCAVRFTFPRYPASYSRYYYWGQGTQVTVSS,high polyreactivity
9,QVQLVESGGGLVQAGGSLRLSCAASGSIFWYYGMGWYRQAPGKERELVAAISSGGSTNYADSVKGRFAISRDNAKNTVYLQMNRLKPEDTAVYYCATKGYLWGQGTQVTVSS,high polyreactivity
10,QVQLVESGGGLVQAGGSLRLSCAASGSIFWYYVMGWYRPAPGKERELVAAISNVSTYYADSVKGRFTISRDNAKNTVYLQMNSLKPEDTAVYYCAARGLLWYYSWRYYYWGQGTQVTVSS,low polyreactivity
11,QVQLVESGGGLVQAGGSLRLSCAASGSIFYANDMGWYRQAPGKERELVADITSDSTYYADSVKGRFTISRDNAKNTVYLQMNSLKPEDTAVYYCAADVYGVHAPQSDYWTKYDYWGQGTQVTVSS,low polyreactivity
12,QVQLVESGGGLVQAGGSLRLSCAASGSIFYAYAMGWYRQAPGKEREFVAVISYSGGSTYYADSVKGRFTISRDNAKNTVYLQMYSLKPEDTAVYYCAARYRRPYSYYYWGQGTQVTVSS,high polyreactivity
13,QVQLVESGGGLVQAGGSLRLSCAASGSIFYAYGMGWYRQAPGKERELVAAISSRGGSTHYADSVKGRFTISRDNAKNTVYLQMNSLKPEDTAVYYCAARHAYPYRRGDFNYWGQGTQVTVSS,high polyreactivity
14,QVQLVESGGGLVQAGGSLRLSCAASGSIFYAYVMGWYRQAPGKERELVAAIDIGGGTYADSVKGRFTISRDNAKNTVYLQMNMLKPEDTAVYYCAKAGYFSRGVYVYYLDEYDYWGQGSQVTVSS,high polyreactivity
15,QVQLVESGGGLVQAGGSLRLSCAASGSIFYDNALGWYRQAPGKERELVAAIDDSDRTYYADSVKGRFTISRDNAKNTVYLQMNSLKPEDTAVYYCARDRWKWHYGYDYWGQGTQVTVSS,low polyreactivity
16,QVQLVESGGGLVQAGGSLRLSCAASGSIFYDNAMGWYRQAPGKERELVAAISGNDATTYYADSVKGRFTISRDNAKNTVYLQMNSLKPEDTAVYSCAADYVLNPWRTRYDYWGQGTQVTVSS,low polyreactivity
17,QVQLVESGGGLVQAGGSLRLSCAASGSIFYDNAMGWYRQAPGKERELVASIRWSGDSTYYADSVKGRFTISRDNAKNTVYLQMNSLKPEDTAVYYCAADPVEPYFTAIAYDFWGQGTQVTVSS,low polyreactivity
18,QVQLVESGGGLVQAGGSLRLSCAASGSIFYDYAMGWYRQAPGKERELVAAISSSGSSTYYADSVKGRFTISRDNAKNTVYLQMNSLKPEDTAVYYCAAYSRRQWKYDYWGQGTQVTVSS,high polyreactivity
19,QVQLVESGGGLVQAGGSLRLSCAASGSIFYDYAMGWYSQEPGKERELVAAISSSGITYYADSVKGRFTISRDNAKTTVYLQMNSLKPEDTAVYYCNARSYLRDYDYWGQGTQVTVTS,high polyreactivity
20,QVQLVESGGGLVQAGGSLRLSCAASGSIFYDYTMGWSRQAPGKERELVAAINSGGSTNYADSVKGRFTISRDNAKNTVYLQMNSLKPEDTAVYYCAAEPQFAFLDSRLWGSDYWGQGTQVTVSS,low polyreactivity
21,QVQLVESGGGLVQAGGSLRLSCAASGSIFYENAMGWYRQAPGKERELVAAISRSGGSTYYADSVKGRFTISRDNAKNSVYLQMNSLKPEDTAVYYCAADVYVFIGDYWGQGTQVTVSS,low polyreactivity

# Source: the nanobody polyreactivity screen of Harvey et al. (2022)
